Common to all, as to test: fluorescence polarisation; 25 °C; unlabeled Rb^P titrated against 1.5 nM TMR-E2F1^TD or 7.5 nM TMR-E7^LxCxE; 25 mM Tris pH 8.0, 200 mM NaCl, 1 mM DTT, 0.1% Tween-20; 2 min incubation; quadratic fit; apparent Kd for the variants, Kd for WT
Common to all, as to details: both partners purified
A general note: In fluorescence polarisation assays a small probe gives low polarisation when free and higher when bound to something large.

One assay addresses T1, Rb^P R656Q (human, UniProt P06400 380-788, R656Q).
T1 construct: also called variant 48
T1 sequence (looked up): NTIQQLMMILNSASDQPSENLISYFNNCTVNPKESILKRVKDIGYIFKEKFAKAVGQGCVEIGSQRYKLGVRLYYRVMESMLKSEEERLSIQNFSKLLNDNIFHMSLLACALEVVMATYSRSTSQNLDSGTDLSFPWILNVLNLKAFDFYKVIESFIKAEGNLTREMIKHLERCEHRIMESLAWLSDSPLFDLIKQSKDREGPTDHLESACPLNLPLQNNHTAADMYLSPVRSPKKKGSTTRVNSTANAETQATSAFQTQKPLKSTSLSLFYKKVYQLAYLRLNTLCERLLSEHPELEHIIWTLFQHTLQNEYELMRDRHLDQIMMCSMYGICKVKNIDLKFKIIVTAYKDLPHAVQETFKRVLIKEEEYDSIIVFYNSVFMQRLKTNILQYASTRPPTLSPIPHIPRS

Assay [1] has as its target T2, retinoblastoma protein pocket domain (Rb^P), wild type (human, UniProt P06400 380-788).
T2 construct: also called WT Rb^P; WT
T2 sequence (looked up): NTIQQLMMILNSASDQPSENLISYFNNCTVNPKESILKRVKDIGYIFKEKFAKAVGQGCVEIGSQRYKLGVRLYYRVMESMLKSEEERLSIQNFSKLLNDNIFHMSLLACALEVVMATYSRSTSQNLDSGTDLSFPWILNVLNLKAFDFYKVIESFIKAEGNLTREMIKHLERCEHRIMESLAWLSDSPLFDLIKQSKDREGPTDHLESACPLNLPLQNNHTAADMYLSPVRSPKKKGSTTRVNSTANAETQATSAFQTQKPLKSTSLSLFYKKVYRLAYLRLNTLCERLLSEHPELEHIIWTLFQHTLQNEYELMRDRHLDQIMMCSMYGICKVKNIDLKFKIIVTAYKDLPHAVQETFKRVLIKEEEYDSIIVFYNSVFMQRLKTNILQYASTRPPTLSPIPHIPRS

A further assay concerns the target T3, Rb^P S463L (human, UniProt P06400 380-788, S463L).
T3 construct: also called variant 10
T3 sequence (looked up): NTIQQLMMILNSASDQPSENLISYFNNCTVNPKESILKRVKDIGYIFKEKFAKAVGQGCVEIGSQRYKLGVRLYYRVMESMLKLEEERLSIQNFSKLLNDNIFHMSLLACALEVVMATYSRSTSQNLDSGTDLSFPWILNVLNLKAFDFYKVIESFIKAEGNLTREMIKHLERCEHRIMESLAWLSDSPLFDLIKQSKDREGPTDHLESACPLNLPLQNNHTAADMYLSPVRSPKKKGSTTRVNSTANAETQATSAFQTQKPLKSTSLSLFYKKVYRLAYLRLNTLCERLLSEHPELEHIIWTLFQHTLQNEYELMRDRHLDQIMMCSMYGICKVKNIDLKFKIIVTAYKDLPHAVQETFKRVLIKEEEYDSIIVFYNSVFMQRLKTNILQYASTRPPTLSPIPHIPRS

For another assay, the target named is T4, Rb^P A525G (human, UniProt P06400 380-788, A525G).
T4 construct: also called variant 20
T4 sequence (looked up): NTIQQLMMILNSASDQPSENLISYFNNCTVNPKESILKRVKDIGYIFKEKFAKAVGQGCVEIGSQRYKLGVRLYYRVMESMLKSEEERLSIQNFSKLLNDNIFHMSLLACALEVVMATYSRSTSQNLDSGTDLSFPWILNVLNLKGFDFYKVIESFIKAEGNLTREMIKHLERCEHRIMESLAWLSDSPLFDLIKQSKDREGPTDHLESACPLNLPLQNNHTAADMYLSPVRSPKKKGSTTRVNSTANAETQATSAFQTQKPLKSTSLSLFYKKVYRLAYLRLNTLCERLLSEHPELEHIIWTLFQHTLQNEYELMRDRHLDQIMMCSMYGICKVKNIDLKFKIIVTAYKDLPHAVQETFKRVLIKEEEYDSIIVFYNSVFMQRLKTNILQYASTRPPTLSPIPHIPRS

A further assay addresses T5, Rb^P I703V (human, UniProt P06400 380-788, I703V).
T5 construct: also called variant 65
T5 sequence (looked up): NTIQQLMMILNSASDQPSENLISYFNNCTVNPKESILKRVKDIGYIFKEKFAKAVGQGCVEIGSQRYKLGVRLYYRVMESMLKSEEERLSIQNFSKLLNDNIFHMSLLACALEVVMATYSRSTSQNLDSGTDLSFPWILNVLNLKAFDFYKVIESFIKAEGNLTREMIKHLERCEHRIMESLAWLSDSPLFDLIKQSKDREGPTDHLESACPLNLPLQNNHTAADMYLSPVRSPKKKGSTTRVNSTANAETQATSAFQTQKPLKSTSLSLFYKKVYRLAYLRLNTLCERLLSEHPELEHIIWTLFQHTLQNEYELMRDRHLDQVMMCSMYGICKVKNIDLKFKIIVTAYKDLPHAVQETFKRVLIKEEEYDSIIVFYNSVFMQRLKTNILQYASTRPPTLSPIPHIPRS

The text below walks through data of PMC11931385, “Structural and functional analysis of cancer-associated missense variants in the retinoblastoma protein pocket domain” (The Journal of Biological Chemistry, 2025).

No end group written: not given here. TMR = tetramethyl rhodamine dye

B1: TMR-E2F1^TD, peptide of the E2F1 transactivation domain (peptide)
peptide: {TMR}-GEGIRDLFDCDFGDLTPLD
notes: also called E2F^TD; source: synthetic peptide, bought: GenScript
For B1, the Kd in the assay with Rb^P R656Q was 0.183 µM; in assay [1] it was 0.014 µM; in the assay with Rb^P S463L, 0.026 µM; in the assay with Rb^P A525G, 0.036 µM; with Rb^P I703V, 0.02 µM.

B2: TMR-E7^LxCxE, LxCxE peptide of the E7 oncoprotein from HPV (peptide)
peptide: DLYCYEQLN
modifications: also: TMR label, position not given here
notes: source: synthetic peptide, bought: GenScript
For the molecule B2, the Kd was found to be 0.006 µM with Rb^P R656Q; 0.005 µM in assay [1]; 0.01 µM with Rb^P S463L; 0.012 µM in the assay with Rb^P A525G; 0.021 µM with Rb^P I703V.
